In patent US20250282869A1 (Amgen, published 2025):

Tests used:
[1] = target: T1, human delta-like ligand 3 (DLL3) (human, UniProt Q9NYJ7 27-618); assay: cell-based or functional assay
T1 sequence (looked up): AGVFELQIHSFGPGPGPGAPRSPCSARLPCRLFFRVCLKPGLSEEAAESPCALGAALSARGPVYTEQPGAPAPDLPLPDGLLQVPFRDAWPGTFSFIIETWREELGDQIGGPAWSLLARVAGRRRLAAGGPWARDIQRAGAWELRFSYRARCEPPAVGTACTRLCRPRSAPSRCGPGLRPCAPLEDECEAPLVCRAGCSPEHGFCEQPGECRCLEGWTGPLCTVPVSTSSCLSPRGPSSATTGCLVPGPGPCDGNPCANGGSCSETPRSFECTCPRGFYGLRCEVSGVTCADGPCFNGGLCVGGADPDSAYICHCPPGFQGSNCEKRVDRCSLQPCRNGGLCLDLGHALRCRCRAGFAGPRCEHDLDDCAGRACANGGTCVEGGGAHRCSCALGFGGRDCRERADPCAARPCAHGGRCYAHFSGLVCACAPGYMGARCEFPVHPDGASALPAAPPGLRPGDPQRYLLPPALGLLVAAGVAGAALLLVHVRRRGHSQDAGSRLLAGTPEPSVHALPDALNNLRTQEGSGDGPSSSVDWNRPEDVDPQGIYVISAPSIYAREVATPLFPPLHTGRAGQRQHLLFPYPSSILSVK

cynomolgus monkey DLL3 [2] = target: T2, cynomolgus monkey DLL3 (cynomolgus monkey, UniProt A0A2K5WSR1 27-584); assay: cell-based or functional assay
T2 sequence: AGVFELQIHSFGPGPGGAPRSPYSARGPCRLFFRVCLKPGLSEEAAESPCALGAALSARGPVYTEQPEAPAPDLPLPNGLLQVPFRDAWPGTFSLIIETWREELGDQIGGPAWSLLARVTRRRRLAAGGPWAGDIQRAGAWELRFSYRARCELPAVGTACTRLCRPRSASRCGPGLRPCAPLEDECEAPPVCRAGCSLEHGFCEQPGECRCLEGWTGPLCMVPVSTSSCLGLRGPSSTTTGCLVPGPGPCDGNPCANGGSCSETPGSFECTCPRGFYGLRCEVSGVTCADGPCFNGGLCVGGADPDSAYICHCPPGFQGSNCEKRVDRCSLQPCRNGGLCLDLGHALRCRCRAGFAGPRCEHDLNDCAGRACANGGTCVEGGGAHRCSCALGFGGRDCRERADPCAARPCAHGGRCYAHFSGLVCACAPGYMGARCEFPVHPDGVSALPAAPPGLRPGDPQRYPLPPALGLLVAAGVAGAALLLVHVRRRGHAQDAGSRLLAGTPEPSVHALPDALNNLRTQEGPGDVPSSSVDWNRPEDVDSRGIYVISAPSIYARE

[3] = target: T3, CD3ε (aa 1-27)-chicken albumin fusion protein, human (human; chicken, UniProt P07766 22-48); assay: SPR, CD3ε (aa 1-27)-chicken albumin immobilized on CM5 chip, construct in solution
T3 construct: range 1-27; Immobilized on CM5 sensor chips; The order of the parts follows the printed name; also called Human CD3; CD3E fusion protein; not shown: chicken albumin
T3 sequence (P07766 22-48 limits assumed): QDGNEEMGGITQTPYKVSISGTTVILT
Protocol: CD3 binding affinity was evaluated using surface plasmon resonance. A CD3E fusion protein (CD3ε (aa 1-27)-chicken albumin) was immobilized on CM5 Sensor Chips in the presence of a sodium acetate buffer (pH 4.5). The DLL3 multichain TCE proteins described above diluted in HBS-EP buffer were applied at different concentrations to determine the molecule association rates with CD3ε. HBP-EP buffer alone was then added to allow analysis of the molecule dissociation rates.

[4] = target: T1, human delta-like ligand 3 (DLL3); assay: flow cytometry, on-cell binding to CHO cells stably expressing human DLL3, anti-Fc detection
Protocol: (§1) In particular, on-cell binding affinity for DLL3 was evaluated using Chinese Hamster Ovary (CHO) cells engineered to stably express either human or cynomolgus monkey DLL3. The engineered CHO cells were incubated with DLL3 multichain TCE proteins comprising two different DLL3-binders (“DLL3_1” or “DLL3_2”) for 4 hours at 4° C. in buffer (phosphate buffered saline with 1% fetal bovine serum). After incubation, the cells were washed in buffer, and then bound DLL3 multichain proteins were detected by incubation with a fluorescently labeled antibody directed to the fragment crystallizable (Fc) region of the proteins. Bound proteins were analyzed by flow cytometry and the EC50 values were calculated from non-linear regression analysis using GraphPad Prism.

cynomolgus monkey DLL3 [5] = target: T2, cynomolgus monkey DLL3; assay: flow cytometry, on-cell binding to CHO cells stably expressing cynomolgus monkey DLL3, anti-Fc detection
Protocol: as §1

Kd [3]: 7.84 nM | EC50 [4]: 0.035 nM | EC50 (cynomolgus monkey DLL3 [5]): 0.04 nM
B1: DLL3_2 hetero IgG (SEFL2)(YTE) (bispecific antibody)
heavy 1: not shown
light 1: DIVMTQTPLSLSVTPGQPASISCKSSQSLLHSDGKTFLYWYLQKPGQPPQLLIYEVSNRFSGVPDRFSGSGSGTDFTLKISRVEAEDVGVYYCLQGIHLPFTFGPGTKVEIKRTVAAPSVFIFPPSDEQLKSGTASVVCLLNNFYPREAKVQWKVDNALQSGNSQESVTEQDSKDSTYSLESTLTLSKADYEKHKVYACEVTHQGLSSPVTKSFNRGEC
heavy 2: EVQLVESGGGLVQPGGSLKLSCAASGFTFNKYAINWVRQAPGKGLEWVARIRSKYNNYATYYADAVKDRFTISRDDSKNTVYLQMNNLKTEDTAVYYCARAENIGTSYISYWAYWGQGTLVTVSSASTKGPSVFPLAPSSKSTSGGTAALGCLVKDYFPEPVTVSWNSGALTSGVHTFPAVLQSSGLYSLESVVTVPSSSLGTQTYICNVNHKPSNTKVDKKVEPKSCDKTHTCPPCPAPELLGGPSVFLFPPKPKDTLYITREPEVTCVVVDVSHEDPEVKFNWYVDGVEVHNAKTKPCEEQYGSTYRCVSVLTVLHQDWLNGKEYKCKVSNKALPAPIEKTISKAKGQPREPQVYTLPPSRKEMTKNQVSLTCLVKGFYPSDIAVEWESNGQPENNYKTTPPVLKSDGSFFLYSKLTVDKSRWQQGNVFSCSVMHEALHNHYTQKSLSLSPGK
light 2: not shown
T cell dependent cellular cytotoxicity (TDCC) EC50, CHO-huDLL3 [1]: 0.1 nM | T cell dependent cellular cytotoxicity (TDCC) EC50, CHO-cyno DLL3 (cynomolgus monkey DLL3 [2]): 0.0227 nM
